{"source": "the supplement of paper PMC12764529", "note": "± gives the half width of the 95% confidence interval.", "data": [{"assay": "folding stability dG unfold (combined trypsin and chymotrypsin); higher = more stable", "how_it_was_run": "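Digests were run with trypsin and chymotrypsin at 11 concentrations in threefold dilutions, plus a no-protease condition, on designed mini-proteins in a PA-tagged cDNA display construct. The mini-proteins were under 80 residues, had no cysteine, and were kept only when AlphaFold2 dimer inter-PAE was above 15. After sequencing, Bayesian fitting of the counts gave K50, from which unfolding free energy was derived against a sequence-predicted unfolded-state K50 and a shared folded-state K50, per protease or combined.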", "units": {"folding stability dG unfold": "kcal/mol"}, "values": [{"sequence": "SAGGSAGGSAGPDVEVVIIPVDPETGEPLDALPIPIPSPEGGLVDEIVKAIPPDRYRVLASAGGSAGGSAGG [r17_339_TrMRF]", "folding stability dG unfold": "< -1"}, {"sequence": "SAGGSAGGSAGGMIKVLEKKEFTPPTGGKEYELKTLDESNGTESIIKFPKEEYKNLKIPSAGGSAGGSAGGS [r10_326_JUSTAS]", "folding stability dG unfold": "0.145 ± 0.2"}, {"sequence": "SGMVTLEDIAAAPPGTPVVVTTKKQGSKNLTFIDAVVDGARSSASYPSIEEARKELEAVGYPVEFVDPAESA [r9_1021_JUSTAS]", "folding stability dG unfold": "-0.429 ± 0.19"}, {"sequence": "SAGGSAGGSAGGMPSSVVINLNLSKEEIEAIKKGKPVSPELKPAIEEAKKEGLKVEIKKSAGGSAGGSAGGS [r10_890_JUSTAS]", "folding stability dG unfold": "0.309 ± 0.13"}, {"sequence": "SAGGTIKPGQPVRIRAEWYNGNKEWTHTHEFPLPENQTLDDVADEILEHLPPEHNKNFKVRIEIEPVSAGGS [r16_321_TrROS]", "folding stability dG unfold": "0.373 ± 0.11"}, {"sequence": "SAGGSAGGSAGGGMKLRLVTYSITTTNKVFPSLEEALAAPPDETDGVDEIISSSLKPLLSAGGSAGGSAGGS [r10_729_JUSTAS]", "folding stability dG unfold": "-0.326 ± 0.15"}, {"sequence": "SAIKIEDDPNGYQQIEIPNPENGRKIVITMMYSPDGQFQMSLQRMDPNGKKKTITAPMPVEEAIDELKDSAG [r14_179_TrROS]", "folding stability dG unfold": "0.0571 ± 0.6"}, {"sequence": "SMYVFSTGSKPSSEQLLEKLEKVPNLPKELIKKNTIISDTESSPEIVIPKEVYDKIKKENPEAVKVIESGSA [r9_160_JUSTAS]", "folding stability dG unfold": "< -1"}, {"sequence": "SAGGSAGGSGGTIKLPLYPPEGKEYKGTIPKEKLEAAIAKGEPIKVTLKTKGKEVKEYTIPIKSAGGSAGGS [r12_991_JUSTAS]", "folding stability dG unfold": "-0.983 ± 0.48"}, {"sequence": "SAGGSAGGSAKSALDQMKGQKFTFYHPGGEQPVPITIEPDKDDNFVVKFPNKKPYPMPIDDISAGGSAGGSA [r18_169_TrROS]", "folding stability dG unfold": "< -1"}, {"sequence": "SAGGSAGGSASMSTTEITVTELEEPGEGKRLVIETKSFTPEGKEIDSEKVEEEVREELGVKPSAGGSAGGSA [r18_332_JUSTAS]", "folding stability dG unfold": "-0.585 ± 0.24"}, {"sequence": "SAGGSAGGSAGGPPNKKFILRIEHPGRPITFPFKSPKGLDEAADKFPDKFGMPPKIEVHPSAGGSAGGSAGG [r7_18_TrROS]", "folding stability dG unfold": "< -1"}, {"sequence": "SAGGSAGGSAGGKPITIERNEDNGPIEIRFPGNGRRIHFPFPPGDDITIDAEDGNIEIKSAGGSAGGSAGGS [r10_979_TrROS]", "folding stability dG unfold": "0.314 ± 0.086"}, {"sequence": "SAGGSAGGSAPNIRAKIEPKPDPGGPKLTIDVEDPDNPELPAEEVAKALEEEFPPDKIEPVSAGGSAGGSAG [r3_226_TrROS]", "folding stability dG unfold": "< -1"}, {"sequence": "SAGGSAGGSELITLTEKASLAVGELNLPSPEELAKKKYPDVKPKNITVSTKPGEGLVTVTVDGKSAGGSAGG [r6_81_JUSTAS]", "folding stability dG unfold": "-0.222 ± 0.19"}, {"sequence": "SAGGSAGGSPKKRTVEIDEWDPEEGNVRARIRDDDEEREFPFRTPEDLEDLANEGGIDKITPHSAGGSAGGS [r12_421_TrROS]", "folding stability dG unfold": "0.0607 ± 0.095"}, {"sequence": "SAGGSAGGSKPIPIKIKARNKDDGKKREEDIQIPPEALKNGKFDKEQIKKELRKLGPRVEIEISAGGSAGGS [r20_221_TrROS]", "folding stability dG unfold": "< -1"}, {"sequence": "SAGGSAGGSAGGGYVTLSHEIPPDQSVEITAPDGKKAKQERDPATKTVTYKISPELYKLLSAGGSAGGSAGG [r7_155_JUSTAS]", "folding stability dG unfold": "< -1"}, {"sequence": "SAGGSAGGSAGGVRIPPGHWKHRLGFPNGKENEFNIPPGAPIEIPPNADDVKIQEIEPVPSAGGSAGGSAGG [r7_542_TrROS]", "folding stability dG unfold": "< -1"}, {"sequence": "SAGGWVKDPDGQTVEMKVLDPGMNKDNAKPFADNIAEQLHRQHGMNPNNVKVKVETDPENGTVRVKVKSAGG [r13_913_TrROS]", "folding stability dG unfold": "< -1"}, {"sequence": "SAGGSAMSLEELKKKKVKVKVKEIEVPKGAKIPDGKTVKEGEKILVVDGKVYLPNGKLIAEVEVEESAGGSA [r15_12_TrROS_Hall]", "folding stability dG unfold": "-0.629 ± 0.47"}, {"sequence": "SAGGSAGGSAPGKHKTIEINGPGDVEEAVDYAKDEMPPGKPIHIRFNDEPITIPAEDAKKISAGGSAGGSAG [r3_50_TrROS]", "folding stability dG unfold": "-0.0642 ± 0.22"}, {"sequence": "SAGGSAGGSAGTATLELTVGGKKATATVEPDPDSPAPVVTVKVGDKPVVLNPDGTWTPADSAGGSAGGSAGG [r11_732_TrMRF]", "folding stability dG unfold": "< -1"}, {"sequence": "SAGGSAGGSASLDPVVVTVTRYPTGVTTTTVSSRPGGEPVTTTTTYDPVSPVAPLPASRLASAGGSAGGSAG [r3_336_JUSTAS]", "folding stability dG unfold": "0.167 ± 0.12"}, {"sequence": "SAGGSAGGSAILRIKLEHPKSGKPMTWVIPPEMNIEQIADMLMEQHPNAEIKDIEWVPPNQISAGGSAGGSA [r18_242_TrROS]", "folding stability dG unfold": "-0.0546 ± 0.097"}, {"sequence": "SAGGAGQRVVLSSDKSLEDLEKLREENPDVSIEVTEINKLEPVKPENGGLEEVPSEIVAELTPGERRSAGGS [r8_172_JUSTAS]", "folding stability dG unfold": "-0.0394 ± 0.076"}, {"sequence": "SAGGSAGGSAGGGSVTRLPDGVTTVVTFPDGSTVTVPAGVPYTDPNAATPVTVSPVPPALSAGGSAGGSAGG [r7_968_JUSTAS]", "folding stability dG unfold": "< -1"}, {"sequence": "SAGGSAGGSAGGPDVTTSDSVSLERLPDDTIVLRRTTTVTPPTGPPVVTSTTTVLPPSTLSAGGSAGGSAGG [r17_312_JUSTAS]", "folding stability dG unfold": "< -1"}, {"sequence": "SAGSAVVRDFDFEVPPGYGVLDVTVTEGPGPPVWEGTVTFQAGGAPETLTVTIPVDPATGARSVAMTAGSAG [r5_136_JUSTAS]", "folding stability dG unfold": "-0.235 ± 0.25"}, {"sequence": "SAGGSAGGSAGSMDSLPMPQVTPKVVELNVPPEEAEKLKKELGAKEIKFSPEGKLIIYLESAGGSAGGSAGG [r11_64_JUSTAS]", "folding stability dG unfold": "-0.453 ± 0.2"}, {"sequence": "SAGEGSRSPGVVLHVTTPTEPLVVREPVAPDEDPEAVLERLAAEVRAALGPDTTVSGEVLSPAELARAASAG [r5_583_JUSTAS]", "folding stability dG unfold": "-0.738 ± 0.23"}, {"sequence": "SSTPKLEEIERPNARFKVTTYTYPNSVKTTADATFPDGTKGKIEETYTPTPEGVKKTVKKDLPPEVKEKLES [r1_153_JUSTAS]", "folding stability dG unfold": "< -1"}, {"sequence": "SAGGSAGGSAGGMTTKYVITVEVPGENRTETIYLDVPPSRPEEAEALAKEISPNAKIERLSAGGSAGGSAGG [r11_250_JUSTAS]", "folding stability dG unfold": "-0.144 ± 0.29"}, {"sequence": "SAGGSAGGSAGPMYKLKAELNNKPFEVMINPDMPPDDQIYIRDPGEWIEFNIENMKVEPVSAGGSAGGSAGG [r11_247_TrROS]", "folding stability dG unfold": "-0.0971 ± 0.14"}, {"sequence": "SAGGSAGGSAGGKDEKPKPLKVPVIVAPAPEYLELAKKLLPPDKAKVIEKKDDKVVIAFGSAGGSAGGSAGG [r7_670_TrMRF]", "folding stability dG unfold": "-0.533 ± 0.21"}, {"sequence": "SAGGSAGGSFELPVPPNTPVDIEATVTRPDGTPATLVDAEPLGDGTFRVTVRYPDGSTETIEVSAGGSAGGS [r12_31_JUSTAS]", "folding stability dG unfold": "0.464 ± 0.061"}, {"sequence": "SAGGGMKTSKVSTSTTTTTVPGTGAPVTVEVTSTTTTFGPNGPAVVTTTSLTYDEAGTPTTTTTTTLSAGGS [r16_200_JUSTAS]", "folding stability dG unfold": "-0.133 ± 0.13"}, {"sequence": "SAGGSAIKIDPDYGTIEIYNPDNGKEIEIPIDGLPPGRKMDIEINNDKIEIKMPGGTRELPIDDIKSAGGSA [r15_864_TrROS]", "folding stability dG unfold": "0.194 ± 0.26"}, {"sequence": "SAGGSAGGSAGGMVEVLPVPDGSTLERDPAGYVTRYDPATGTATTVPLADVELSPGSPELSAGGSAGGSAGG [r7_656_JUSTAS]", "folding stability dG unfold": "-0.0715 ± 0.23"}, {"sequence": "SAGMVIELPNATITIETVPDPSSSNKVYRVTVTAHLPDGSRPVVVLTFPENVPIEEILKEAIKAAEELLSAG [r5_704_JUSTAS]", "folding stability dG unfold": "> 6"}, {"sequence": "SAGGSAGGSAGGSNPNKPKEFYRIEYTHGGKPHTHMFPPNEPIPPGPNMKVDPFPADDLSAGGSAGGSAGGS [r4_107_TrROS]", "folding stability dG unfold": "-0.688 ± 0.69"}, {"sequence": "SSSSLLKSSTEEVEVSTTFTKTSPDGSLTPVGTTTEVVTKTVKTVPKEILEKLKKEKEKPLPPEGNLGYLSA [r9_1192_JUSTAS]", "folding stability dG unfold": "0.000763 ± 0.41"}, {"sequence": "SAGGSAGGSGAEITTLPEGRALLRLYDEGGVLVEEAEVEVELDAVLVFDRDNPRIGVFGPDELSAGGSAGGS [r12_1002_TrMRF]", "folding stability dG unfold": "-0.203 ± 0.14"}, {"sequence": "SAGGSAGGSAGGSKPDPEIEQERNPEKGYRTIKIEFPDKPRTIMVKNLPPDDPALRDAFSAGGSAGGSAGGS [r4_328_TrROS]", "folding stability dG unfold": "-0.349 ± 0.18"}, {"sequence": "SAGGSAGGSAGGSMVPVPVNILKLAPGGIPLGTYPVEPLRKEGISPEEFAKKNGYIISGSAGGSAGGSAGGS [r10_153_JUSTAS]", "folding stability dG unfold": "-0.827 ± 0.26"}, {"sequence": "SAGGSAGGSAGQPKPLPGGGEVKVEVYPPNNGKKKKFEIPPNEPDWIKELAKPGYSVHIESAGGSAGGSAGG [r11_1006_TrROS]", "folding stability dG unfold": "-0.677 ± 0.43"}, {"sequence": "SAGGSAGGSAGMKDNLVVTRTYTLPDDTVLVTRATFDSNPELVTVDVTEVPLSDVAPDAVSAGGSAGGSAGG [r11_493_TrMRF]", "folding stability dG unfold": "-0.0312 ± 0.14"}]}]}
